Data published in patent publication US20250313641A1.

Biological target: cynomolgus monkey IL-2 receptor (IL-2R) on cyno PBMC subsets (cynomolgus monkey) (UniProt Q38J85)
Test: cell-based or functional assay

Chain of cynomolgus monkey IL-2 receptor (IL-2R) on cyno PBMC subsets (cynomolgus monkey) (Q38J85 27-551, chain 1 of 2): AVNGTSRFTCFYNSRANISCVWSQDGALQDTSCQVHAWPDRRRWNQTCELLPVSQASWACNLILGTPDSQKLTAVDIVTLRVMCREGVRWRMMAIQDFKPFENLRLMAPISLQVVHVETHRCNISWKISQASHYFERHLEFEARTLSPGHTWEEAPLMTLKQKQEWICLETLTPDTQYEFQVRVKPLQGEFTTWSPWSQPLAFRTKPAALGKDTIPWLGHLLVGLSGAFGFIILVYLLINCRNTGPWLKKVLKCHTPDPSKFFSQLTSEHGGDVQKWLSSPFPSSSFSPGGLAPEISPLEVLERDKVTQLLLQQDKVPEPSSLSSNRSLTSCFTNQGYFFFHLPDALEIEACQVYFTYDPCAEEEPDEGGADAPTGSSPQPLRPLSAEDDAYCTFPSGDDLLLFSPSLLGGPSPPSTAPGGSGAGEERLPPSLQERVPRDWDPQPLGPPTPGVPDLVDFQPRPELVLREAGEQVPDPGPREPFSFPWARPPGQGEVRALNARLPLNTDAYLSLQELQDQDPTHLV
Chain of cynomolgus monkey IL-2 receptor (IL-2R) on cyno PBMC subsets (cynomolgus monkey) (chain, as listed by the source, chain 2 of 2): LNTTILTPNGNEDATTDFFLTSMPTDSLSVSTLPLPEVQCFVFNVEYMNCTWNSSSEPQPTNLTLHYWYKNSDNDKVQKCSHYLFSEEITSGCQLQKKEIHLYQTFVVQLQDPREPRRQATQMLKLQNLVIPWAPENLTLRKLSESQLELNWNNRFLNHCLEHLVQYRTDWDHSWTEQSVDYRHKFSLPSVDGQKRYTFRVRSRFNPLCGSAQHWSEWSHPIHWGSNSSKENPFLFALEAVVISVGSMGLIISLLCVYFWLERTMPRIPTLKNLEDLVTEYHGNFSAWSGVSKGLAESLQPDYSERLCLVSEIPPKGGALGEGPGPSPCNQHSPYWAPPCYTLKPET

Ki67 (Cyno) EC50 [nM], CD4^+ T cells: 0.01 nM | Ki67 (Cyno) EC50 [nM], CD8^+ T cells: 0.05 nM | Ki67 (Cyno) EC50 [nM], T-regs: 0.009 nM | Ki67 (Cyno) Emax (%), CD4^+ T cells: 90% | Ki67 (Cyno) Emax (%), CD8^+ T cells: 88% | Ki67 (Cyno) Emax (%), NK cells: 92% | Ki67 (Cyno) Emax (%), T-regs: 69%
Substance: Recombinant human IL-2 (from UniProt P60568 21-153) (ligand)
